Data taken from patent US20190298850A1.

Target: IL-21 (human) (UniProt Q9HBE4)
Assay: cell-based or functional assay

Sequence of UniProt Q9HBE4 (Q9HBE4 25-162 limits assumed): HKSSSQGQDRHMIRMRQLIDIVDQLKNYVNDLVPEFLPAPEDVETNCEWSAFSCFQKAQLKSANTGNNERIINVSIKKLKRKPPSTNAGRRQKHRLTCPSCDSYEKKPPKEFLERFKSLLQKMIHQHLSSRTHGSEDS

decrease in plasma cell differentiation of memory B cells co-cultured with blood PD-1hi CXCR5+ or PD-1hi CXCR5- CD4+ T cells: 90%
Substance: IL-21R-Ig fusion protein (from UniProt Q9HBE5 20-232) (Fc fusion)
